Results reported in the Human Domainome abundance scans (Beltran et al. 2025).
± gives the uncertainty stated by the source.

B1: Lysine-specific demethylase 2B, residues 656 to 722; numbered along this chain, Q8NHM5 (parent)
chain: LPHTAVCLVCGEAGKEDTVEEEEGKFNLMLMECSICNEIIHPGCLKIKESEGVVNDELPNCWECPKC

Variants of: B1
Experiment: abundance fitness (aPCA) (normalised: wild type 0, dead -1); higher = more abundant; growth selection in yeast, the domain comes from the species named
Details: Homo sapiens

Abundance fitness of substitutions, site by site:
P65: L -0.606 ± 0.12, E -0.148 ± 0.12, A -0.133 ± 0.077, D -0.547 ± 0.25, T -0.634 ± 0.15, V -0.503 ± 0.092, W -0.432 ± 0.1, C -0.384 ± 0.11, S -0.177 ± 0.077, F -0.401 ± 0.16, H -0.289 ± 0.14, Q -0.454 ± 0.26, R -0.364 ± 0.079, I -0.899 ± 0.31
W62: M -0.425 ± 0.14, I -1 ± 0.39, L -0.391 ± 0.096, Y -0.296 ± 0.42, N -0.541 ± 0.13, K -0.339 ± 0.17, A -0.509 ± 0.082, V -0.465 ± 0.074, F -0.014 ± 0.34, P -0.17 ± 0.12, R -0.574 ± 0.11, Q -0.601 ± 0.28, S -0.551 ± 0.12, T -0.426 ± 0.15, E -0.439 ± 0.11, G -0.789 ± 0.1, H -0.838 ± 0.31, C -0.858 ± 0.26
G52: W -0.365 ± 0.2, I -0.525 ± 0.24, C -0.051 ± 0.2, H -0.086 ± 0.12, N -0.09 ± 0.32, S -0.146 ± 0.12, P 0.171 ± 0.1, K -0.164 ± 0.093, L -0.142 ± 0.066, D -0.121 ± 0.097, R 0.067 ± 0.069, Q -0.094 ± 0.1, T -0.122 ± 0.1, E -0.016 ± 0.12, A 0.224 ± 0.11, F -0.028 ± 0.11, V 0.018 ± 0.095
E63: P -0.968 ± 0.32, S -0.223 ± 0.074, F -0.407 ± 0.14, G -0.252 ± 0.1, V 0.039 ± 0.079, L -0.074 ± 0.078, K 0.146 ± 0.071, N -0.246 ± 0.12, C -0.073 ± 0.12, R -0.031 ± 0.066, M -0.006 ± 0.1, T 0.102 ± 0.075, Y -0.263 ± 0.23, W -0.386 ± 0.074, Q -0.148 ± 0.14, A 0.017 ± 0.14
N55: K -0.591 ± 0.34, Y -0.386 ± 0.44, R -0.015 ± 0.09, L -0.188 ± 0.085, C -0.202 ± 0.37, P -0.227 ± 0.17, E -0.165 ± 0.13, M -0.203 ± 0.17, H 0.049 ± 0.22, S 0.087 ± 0.1, V -0.236 ± 0.1, Q -0.189 ± 0.22, W -0.389 ± 0.19, D -0.031 ± 0.35, G -0.022 ± 0.11, T -0.101 ± 0.12, A -0.089 ± 0.13
E51: A -0.044 ± 0.073, S -0.131 ± 0.098, T 0.072 ± 0.096, K -0.027 ± 0.19, M -0.19 ± 0.093, C 0.056 ± 0.16, G -0.197 ± 0.096, P -0.328 ± 0.15, L -0.385 ± 0.11, W -0.14 ± 0.12, V -0.124 ± 0.076, Y -0.172 ± 0.15, Q -0.239 ± 0.18, H 0.097 ± 0.1, R -0.001 ± 0.066
N60: T -0.091 ± 0.14, E -0.211 ± 0.098, F 0.153 ± 0.19, K -0.176 ± 0.12, C -0.368 ± 0.18, G -0.062 ± 0.079, W -0.176 ± 0.1, P -0.128 ± 0.16, Q -0.155 ± 0.14, L -0.3 ± 0.066, S -0.166 ± 0.072, R -0.044 ± 0.08, M -0.234 ± 0.1, H -0.127 ± 0.22, I -0.186 ± 0.11
D56: P 0.099 ± 0.1, F 0.023 ± 0.23, S 0.07 ± 0.077, Q -0.049 ± 0.094, C -0.233 ± 0.31, R 0.123 ± 0.057, N -0.017 ± 0.095, A 0.001 ± 0.066, G 0.079 ± 0.072, E -0.075 ± 0.069, M 0.123 ± 0.14, W -0.401 ± 0.089, L -0.114 ± 0.085, V -0.102 ± 0.067, H 0.692 ± 0.48, K 0.179 ± 0.13, I -0.685 ± 0.46, Y 0.063 ± 0.2, T 0.069 ± 0.083
K48: M 0.157 ± 0.11, V -0.261 ± 0.12, N 0.222 ± 0.19, Q 0.108 ± 0.11, E 0.152 ± 0.1, C -0.179 ± 0.15, G -0.056 ± 0.067, F -0.078 ± 0.19, Y 0.011 ± 0.25, R -0.168 ± 0.085, P -0.159 ± 0.19, W -0.119 ± 0.092, S -0.155 ± 0.089
K66: G -0.263 ± 0.12, C -0.819 ± 0.41, M -0.434 ± 0.14, A -0.425 ± 0.18, D -0.064 ± 0.16, E -0.058 ± 0.21, L -0.705 ± 0.18
E57: S 0.102 ± 0.087, D 0.103 ± 0.13, Q -0.118 ± 0.13, I -0.196 ± 0.16, W -0.305 ± 0.11, M -0.079 ± 0.14, C 0.036 ± 0.14, P -0.296 ± 0.18, Y -0.179 ± 0.18, V -0.168 ± 0.085, A 0.053 ± 0.083, H 0.001 ± 0.28, L -0.042 ± 0.087, R -0.055 ± 0.067, G -0.065 ± 0.062, F -0.107 ± 0.14
